We go through two molecules from US20190008947A1.

What is called IC50 is the concentration that gives 50% inhibition. Read a high IC50 as weaker potency.

Assay [1] has as its target HLA-A*02:01 (human), P04439.
The next assay concerns the target A*03:01, P04439. The conditions noted are these: modification not given.
The target in the next assay is A*11:01, P04439. To be noted: modification not given.

In the case of TALTGATEI (modifications not checked) [… (SEQ ID NO: 344)], the REVEAL Score in assay [1] was 0.9.
Consider ALKLSWFKK […, serotype 1], for which the IC50 in the assay with A*03:01, P04439 turned out to be 42 nM; with A*11:01, P04439 it was 59 nM.
